In patent publication US20250326848A1:
Each block holds one substance with its values, some of them ahead of it.

Key:
[1] = molecular target: human CD47 on Jurkat cells (human) (UniProt Q08722); experiment: FACS, whole cell binding to Jurkat cells; bottom panel 'Anti-CD47 Binding to CD47+ cells', nM is from the axis 'Conc. (nM)'
[2] = molecular target: human PDL1 expressed on CHO cells (human) (UniProt Q9NZQ7)
[3] = molecular target: human CD47 on primary human red blood cells (human) (UniProt Q08722); experiment: FACS, whole cell binding to primary human red blood cells, Donor1
[4] = molecular target: human CD47 on primary human platelets (human) (UniProt Q08722); experiment: FACS, binding to primary human platelets, donor 2
[5] = molecular target: human CD47 on primary human red blood cells (human) (UniProt Q08722); experiment: FACS, whole cell binding to primary human red blood cells, Donor2
[6] = molecular target: human CD47 on primary human platelets (human) (UniProt Q08722); experiment: FACS, binding to primary human platelets, donor1
[7] = molecular target: human CD47 on Jurkat cells (human) (UniProt Q08722); experiment: FACS, whole cell binding to Jurkat cells; middle panel 'Anti-CD47 whole cell binding to Jurkat', nM is from the axis 'Conc(nM)'
[8] = molecular target: human CD47 on Jurkat cells (human) (UniProt Q08722); experiment: FACS, whole cell binding to Jurkat cells; bottom panel 'Anti-CD47 Binding to CD47+ cells'; fit value printed for the control curve; nM is from the axis
[9] = molecular target: human CD47 on Jurkat cells (human) (UniProt Q08722); experiment: FACS, whole cell binding to Jurkat cells; top panel 'HLX305 Binding to CD47+ Jurkat Cells'; fit value given for a flat control curve; nM is from the axis
[10] = molecular target: human CD47 on Jurkat cells (human) (UniProt Q08722); experiment: FACS, whole cell binding to Jurkat cells; middle panel 'Anti-CD47 whole cell binding to Jurkat'; fit value given for a flat control curve; nM is from the axis

Sequence of human PDL1 expressed on CHO cells (human) (Q9NZQ7 19-290 limits assumed): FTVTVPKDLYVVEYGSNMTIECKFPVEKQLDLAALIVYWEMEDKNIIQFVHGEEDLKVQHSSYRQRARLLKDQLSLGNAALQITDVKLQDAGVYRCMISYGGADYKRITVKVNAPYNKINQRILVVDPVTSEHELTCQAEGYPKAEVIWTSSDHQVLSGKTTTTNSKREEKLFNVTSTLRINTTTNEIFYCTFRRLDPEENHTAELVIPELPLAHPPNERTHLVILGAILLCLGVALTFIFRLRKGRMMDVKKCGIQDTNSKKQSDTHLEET

EC50 [1]: 8.29 nM
Substance: PF-07257876 analog (anti-PDL1/CD47 antibody of US 20210179716 A1, synthesized in-house) (bispecific antibody)

EC50; whole cell PDL1/PD1 blocking assay, NFAT luciferase reporter (RLU) [2]: 0.0532 nM
Substance: Reference Ab 1 (analog of MPDL3280A, synthesized in-house from WO2016007235A1) (antibody)

EC50 (read off the curve) [3]: 2 nM
EC50 (read off the curve) [4]: 0.8 nM
EC50 (read off the curve) [5]: 2 nM
EC50 (read off the curve) [6]: 1 nM
EC50 [7]: 0.682 nM
Substance: IBI322 analog (anti-PDL1/CD47 antibody of US 20220227870 A1, synthesized in-house) (bispecific antibody)

EC50 [8]: 50 nM
EC50 [9]: 6.73 nM
EC50 [10]: 0.00976 nM
Substance: IgG isotype antibody (negative control)
